Substitutions are numbered along the chain they refer to.
B1: OKT3-PE labeled conjugate (Abcam Cat. No. ab86882) (antibody, mouse IgG2a, V domains shown)
VH: not shown
VL: QIVLTQSPAIMSASPGEKVTMTCSASSSVSYMNWYQQKSGTSPKRWIYDTSKLASGVPAHFRGSGSGTSYSLTISGMEAEDAATYYCQQWSSNPFTFGSGTKLEINR
modifications: PE (phycoerythrin) conjugate, site not stated
notes: Bought PE conjugate of OKT3; also called labeled OKT3
B2: VH2ala/Vκ2 humanized anti-CD3 mAb (antibody, V domains shown)
VH: QVQLVQSGSELKKPGASVKVSCKASGYTFTRYTMHWVRQAPGKGLEWIGYINPSRGYTNYNQKFKDRATITTDKSTSTAYMELSSLRSEDTAVYYCARYYDDHYALDYWGQGTLVTVSS
VL: QIVLTQSPATLSLSPGERATLSCSASSSVSYMNWYQQKPGKAPKRWIYDTSKLASGVPSRFSGSGSGTDYTLTISSLQPEDFATYYCQQWSSNPFTFGGGTKVEIKR
B3: VH2val/Vκ2 humanized anti-CD3 mAb (antibody, V domains shown)
VH: B2 VH with A105V
VL: B2 VL
B4: VH2ser/Vκ2 humanized anti-CD3 mAb (antibody, V domains shown)
VH: B2 VH with A105S
VL: QIVLTQSPATLSLSPGERATLSCSASSSVSYMNWYQQKPGKAPKRWIYDTSKLASGVPSRFSGSGSGTDYTLTISSLQPEDFATYYCQQWSSNPFTFGGGTKVEIK
notes: Human IgG4 (Ser241Pro) / κ; also called VH2ser/Vκ2 mutant; VH2scr/VK2

How the values were obtained:
[1] = molecular target: T1, human cell-surface CD3 (Cluster of Differentiation 3) on Jurkat cells (human, UniProt P07766 23-207); experiment: direct binding by FACS, dilution series on 3×10^5 Jurkat cells
T1 construct: whole, on cells; CD3 is a complex of several chains; also called human CD3; CD3 T-cell-surface molecule

[2] = molecular target: T1, human cell-surface CD3 (Cluster of …); experiment: competition FACS on Jurkat cells; competitor OKT3-PE at 0.02 µg/mL

Binder | EC50 [1] [µg/mL] | IC50 [2] [µg/mL]
B1 | 0.02 | –
B2 | – | 0.045
B3 | – | 0.055
B4 | – | 0.041

From US20180244778A1 (THERAPIX BIOSCIENCES, published 2018)
